The record followed here is patent publication US9618524B2, “Method, composition, isolation and identification of a plaque particle and related biomarker” (Plaxgen Inc., priority 2012, dated 2017).

Common to all, as to assay: Mass spectroscopy proteomics, semi-quantitative binding affinity of serum proteins (plaqueproteome, Table 2)
Common to all, as to conditions: higher number = stronger affinity

For assay [1], the target named is T1, Abeta-42 plaque particles (Homo sapiens, UniProt P05067).
T1 construct: Abeta 1-42
In short, it runs like this: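 AD patient serum or plasma (50% in PBS) was incubated with Abeta-42 aggregates (30 μg) for 1 h at 37 °C, then stained with Thioflavin S for 30 min. Labeled particles were FACS-sorted, trypsin/Lys-C digested overnight and analyzed by MS/MS. Sequest searched human UniProt; Scaffold/Protein Prophet validated the identifications.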

Assay [2] has as its system High Density cholesterol (Chl Large) plaque particles. Also noted: species or system human. In short, it runs like this: (§1)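 Serum or plasma from atherosclerotic subjects, diluted to 50% in PBS, was incubated with cholesterol aggregates (30 μg per 1 mL reaction) at 37° C for 1 hr. Small and large cholesterol plaque particles were sorted by flow cytometry gating, trypsin-digested and analysed by MS/MS against a human UniProt database.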

The test system of assay [3] is Low density cholesterol (Chl small) plaque particles. The arrangement: species or system human. In short, it runs like this: as §1
The target in assay [4] is T2, alpha-synuclein plaque particles (Homo sapiens, UniProt P37840).
T2 construct: 140 amino acids polypeptide
An outline of the steps: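 AD-subject plasma or serum (800 μL of 50%) mixed with 30 μg preformed alpha-synuclein aggregates for 1 h at 37 °C; Thioflavin S-positive particles isolated by flow sorting. After reduction, acrylamide alkylation and overnight tryptic digestion, serum proteins identified by MS/MS with Sequest and Scaffold.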

Assay [5] relates to Tau plaque particles. Also noted: species or system human. In short, it runs like this: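 Synthetic Tau-74 and Tau-275 peptides (1 mg/mL PBS, 37° C, 2 h) aggregated; 30 μg aggregates incubated with 50% serum/plasma 1 h at 37° C, stained with Thioflavin S, and plaque particles sorted by flow cytometry. Bound proteins trypsin-digested and identified by MS/MS against human UniProt.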

B1: Inter-alpha-trypsin inhibitor heavy chain H1 (protein)
chain: SKSSEKRQAVDTAVDGVFIRSLKVNCKVTSRFAHYVVTSQVVNTANEAREVAFDLEIPKTAFISDFAVTADGNAFIGDIKDKVTAWKQYRKAAISGENAGLVRASGRTMEQFTIHLTVNPQSKVTFQLTYEEVLKRNHMQYEIVIKVKPKQLVHHFEIDVDIFEPQGISKLDAQASFLPKELAAQTIKKSFSGKKGHVLFRPTVSQQQSCPTCSTSLLNGHFKVTYDVSRDKICDLLVANNHFAHFFAPQNLTNMNKNVVFVIDISGSMRGQKVKQTKEALLKILGDMQPGDYFDLVLFGTRVQSWKGSLVQASEANLQAAQDFVRGFSLDEATNLNGGLLRGIEILNQVQESLPELSNHASILIMLTDGDPTEGVTDRSQILKNVRNAIRGRFPLYNLGFGHNVDFNFLEVMSMENNGRAQRIYEDHDATQQLQGFYSQVAKPLLVDVDLQYPQDAVLALTQNHHKQYYEGSEIVVAGRIADNKQSSFKADVQAHGEGQEFSITCLVDEEEMKKLLRERGHMLENHVERLWAYLTIQELLAKRMKVDREERANLSSQALQMSLDYGFVTPLTSMSIRGMADQDGLKPTIDKPSEDSPPLEMLGPRRTFVLSALQPSPTHSSSNTQRLPDRVTGVDTD
Turning to B1, the “Semi-quantitative analysis of proteins binding to different plaque particles: Abeta-42” value in assay [1] is 7. Moreover, in assay [2], the “Semi-quantitative analysis of proteins binding to different plaque particles: Chl Large” value turned out to be 11. For the same molecule, the “Semi-quantitative analysis of proteins binding to different plaque particles: Chl small” value in assay [3] stood at 7. Moreover, the “Semi-quantitative analysis of proteins binding to different plaque particles: Synuclein” value in assay [4] turned out to be 10. Besides, the “Semi-quantitative analysis of proteins binding to different plaque particles: Tau” value in assay [5] is given as 18.
